This test has as its target SDDV major capsid protein, Flag-tagged (pFlag-N3-SDDV MCP) (scale drop disease virus (SDDV)).

As to ADLFRNQFALATWTIQGCANSLAGDIWSL [TM-B polypeptide containing the binding site with SDDV-MCP in mfTfR1], the mortality of mandarin fish challenged with SDDV pre-incubated with TM-B, against the petB2M control (blocks m2 with m8) worked out at 40%.

The record behind these values is publication PMC12363161.
